Laboratory results as given in patent US6699662B1, “Inhibitors of staphylococcus SarA protein function involved in the expression of staphylococcal virulence factors and the use thereof in treating staphylococcal infections” (priority 1999, dated 2004).

System: P2-P3 promoter region
Test: DNase I footprinting of SarA binding to the agr regulatory region
Set-up: species or system Staphylococcus aureus
Settings: 40 pM 32P-labeled DNA; regions A1, A2, B1, B2, C1, C2
Description: To test this notion and identify binding sites for SarA in this region, DNase I footprinting was perfomred with the purified SarA. […] The data were quantified by phosphorimaging.
SarA was allowed to bind to the DNA in a reaction mixture containing 40 pM of ^32P-labeled DNA, 10 mM Hepes (pH 7.6), 5 mM MgCl2, 1 mM CaCl2, 1 mM DTT, and 100 mM KCl at room temperature for 30 minutes. An amount of DNase I, which produced approximately 50% non-nicked DNA, was added to the reaction mixture and incubated for 2 minutes. The reaction was quenched by addition of stop solution (80% EtOH, tRNA (1 ug/ml), 0.3 M NH4OAc) and immediately put into a dry ice/EtOH bath for 30 minutes. A visible pellet was obtained after centrifugation and washed with 70% ethanol. Following denaturing gel electrophoresis, the DNA fragments were detected and quantified by phosphoimaging. The radioactivity in the bands for samples containing SarA was subtracted from the no protein control using Microsoft Excel. The concentration of SarA required to protect a cleavage site fully was determined. To identify the regions of protection within the inter-promoter region, purine sequencing was included in the analysis. Chemical sequencing was done according to standard procedures.

B1: SarA: purified full-length recombinant S. aureus (strain DB) SarA protein expressed in E. coli (protein)
chain: AITKINDCFELLSMVTYADKLKSLIKKEFSSISFEEFAVLTYISENKEKEYYLKDIINHLNYKQPQVVKAVKILSQEDYDKKRNEHDERTVLILVNAQQRKKIESLLSRVNKRITEANNEIEL
  SarA concentration at which the footprinted regions were protected by more than 50%: 3 to 6 pM
